Test results: patent publication US20200239562A1 (ANAPTYSBIO, published 2020)

Biological target: T1, human IL-33 (human, UniProt O95760 112-270, limits assumed)
T1 construct: also called Interleukin-33
T1 sequence (looked up): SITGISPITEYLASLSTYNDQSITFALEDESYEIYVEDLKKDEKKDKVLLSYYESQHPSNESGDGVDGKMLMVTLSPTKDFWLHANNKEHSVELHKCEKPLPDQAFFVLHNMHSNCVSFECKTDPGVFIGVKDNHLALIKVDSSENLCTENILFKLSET
Test: method not stated

B1: ANB020 (antibody, V domains shown)
VH: QVQLMQSGAEVKKPGASVKVSCKASGYTFTSYWMHWVRQAPGQGLEWMGTIYPRNSNTDYNQKFKARVTMTRDTSTSTVYMELSSLRSEDTAVYYCARPLYYYLTSPPTLFWGQGTLVTVSS
VL: DIQLTQSPSFLSASVGDRVTLTCKASQDVGTAVAWTQQKPGKAPKLLIYWASTRHTGVPSRFSGSGSGTEFTLTISSLQPEDFATYYCQQAKTYPFTFGSGTKLEIK
Kd: ~1 pM
